In patent publication US6991909B2, “Enkurin and uses thereof” (University of Massachusetts, priority 2002, dated 2006):

T1: enkurin-HA (Mus musculus (Mouse)) (UniProt Q6SP97)
T1 sequence: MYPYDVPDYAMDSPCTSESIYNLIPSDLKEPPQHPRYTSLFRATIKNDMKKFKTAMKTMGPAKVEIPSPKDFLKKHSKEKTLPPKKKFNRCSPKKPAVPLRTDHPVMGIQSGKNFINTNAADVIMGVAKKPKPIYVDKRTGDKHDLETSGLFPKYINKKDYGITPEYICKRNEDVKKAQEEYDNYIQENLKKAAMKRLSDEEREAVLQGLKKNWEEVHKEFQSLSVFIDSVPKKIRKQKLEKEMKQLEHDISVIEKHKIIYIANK

T2: TRPC2 stably expressed in HEK-293 cells (mouse, UniProt Q9R244 1-1172)
T2 sequence (looked up): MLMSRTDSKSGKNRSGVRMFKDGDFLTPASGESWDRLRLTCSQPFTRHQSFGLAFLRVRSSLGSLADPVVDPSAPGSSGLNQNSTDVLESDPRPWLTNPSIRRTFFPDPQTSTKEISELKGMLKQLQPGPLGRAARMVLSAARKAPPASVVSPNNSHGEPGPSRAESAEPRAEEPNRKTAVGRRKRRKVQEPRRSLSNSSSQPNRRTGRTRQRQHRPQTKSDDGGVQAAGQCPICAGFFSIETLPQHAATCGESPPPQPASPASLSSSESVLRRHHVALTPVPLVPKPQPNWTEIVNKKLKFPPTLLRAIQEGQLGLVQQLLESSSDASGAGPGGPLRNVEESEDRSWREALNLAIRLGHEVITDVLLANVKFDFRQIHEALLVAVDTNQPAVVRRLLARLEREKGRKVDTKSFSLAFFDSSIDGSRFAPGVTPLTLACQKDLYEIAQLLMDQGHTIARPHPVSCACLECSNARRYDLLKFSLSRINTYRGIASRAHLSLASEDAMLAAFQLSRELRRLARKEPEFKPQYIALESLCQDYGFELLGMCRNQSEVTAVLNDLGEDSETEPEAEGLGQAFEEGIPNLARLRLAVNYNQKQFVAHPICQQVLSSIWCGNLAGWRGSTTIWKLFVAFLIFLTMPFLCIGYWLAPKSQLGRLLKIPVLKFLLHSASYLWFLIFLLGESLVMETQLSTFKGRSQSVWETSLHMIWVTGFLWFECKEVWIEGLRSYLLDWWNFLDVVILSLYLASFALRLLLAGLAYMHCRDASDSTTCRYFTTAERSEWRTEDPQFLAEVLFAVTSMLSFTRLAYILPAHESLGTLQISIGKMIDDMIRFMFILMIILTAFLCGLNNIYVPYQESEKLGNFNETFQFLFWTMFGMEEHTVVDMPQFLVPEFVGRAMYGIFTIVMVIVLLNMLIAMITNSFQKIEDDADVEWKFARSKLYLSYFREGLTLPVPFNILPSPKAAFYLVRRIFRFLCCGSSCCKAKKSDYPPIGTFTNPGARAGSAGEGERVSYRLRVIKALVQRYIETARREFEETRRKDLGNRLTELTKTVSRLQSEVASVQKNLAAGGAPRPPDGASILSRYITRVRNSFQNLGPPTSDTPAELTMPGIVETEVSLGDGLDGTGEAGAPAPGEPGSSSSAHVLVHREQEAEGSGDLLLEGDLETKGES

B1: TRPC2336-361 peptide (peptide)
peptide: LPQHAATCGESPPPQPASPASLSSS
B2: enkurin (other)
chain: MDSPCTSESIYNLIPSDLKEPPQHPRYTSLFRATIKNDMKKFKTAMKTMGPAKVEIPSPKDFLKKHSKEKTLPPKKKFNRCSPKKPAVPLRTDHPVMGIQSGKNFINTNAADVIMGVAKKPKPIYVDKRTGDKHDLETSGLFPKYINKKDYGITPEYICKRNEDVKKAQEEYDNYIQENLKKAAMKRLSDEEREAVLQGLKKNWEEVHKEFQSLSVFIDSVPKKIRKQKLEKEMKQLEHDISVIEKHKIIYIANK

Tests used:
[1] = biological target: T1, enkurin-HA (Mus musculus (Mouse)); assay: co-immunoprecipitation with anti-HA-Sepharose from HEK/TRPC2 cell extracts, blot with anti-RDAS; peptide competes with TRPC2
TRPC2 channel = assay: Perforated whole cell patch clamp of ATP-evoked currents in HEK-293 cells stably transfected with TRPC2; type: cell-based, mouse
Text: The effects of enkurin on the ion channel activity of TRPC2 were examined using HEK-293 cells that were stably transfected with TRPC2. HEK cells provide a good model for the study of receptor-activated ion channels since they have very low levels of endogenous ion channel activity and thus provide a relatively uncomplicated model for the study of exogenous channels. These cells also have endogenous […] receptors that regulate phospholipase C (PLC), thereby providing a facile and reversible means for activating PLC-dependent ion channels, HEK cells have been used to study TRPC2 function (Jungnickel et al., supra 2001).
In experiments on the TRPC2 channel in HEK cells, ion channel activity was measured using the perforated, whole cell patch clamp. This configuration permits the determination of ion currents while simultaneously maintaining cytoplasmic integrity.
ATP ([…]) evoked an inward current in TRPC2-expressing HEK cells (Derassi et al, 1998, Trends Cell Biol 8:84-87) that reaches peak amplitude in 20-30 seconds. However, when TRPC2 and enkurin were co-expressed (trace 2), the evoked current was 5-6 times larger (131+/−12 pA, n=5). This current activates about 25 times faster (peak amplitude in 0.5-1 seconds) and inactivates more rapidly. Total TRPC2 current, as estimated by integrating the areas beneath these traces, is increased nine +/−two-fold by enkurin. […] Anti-RDAS blocked >95% of the ATP-evoked current in cells that had been co-transfected with TRPC2 and with enkurin (trace 2). Thus, enkurin is stimulating TRPC2 currents, not acting at some undefined endogenous channel or forming a channel itself.
In the assay, HEK cells are used that constitutively express TRPC2. Such cell lines can be produced using methods known in the art. The line should express reproducible levels of TRPC2 current. In a line that we developed, enkurin increased the peak amplitude of ATP-evoked TRPC2 currents by >5-6 fold and the activation and inactivation rates by 25 fold. In addition, this signal can be “zero-ed” using anti-RDAS, the TRPC2 blocking antibody (FIG. 7). Given this magnitude of current enhancement by enkurin in such a cell line, even subtle effects of enkurin mutants, candidate compounds, or antisense molecules are detectable.

[2] = biological target: T2, TRPC2 stably expressed in HEK-293 cells; assay: cell-based or functional assay
[3] = TRPC2 and enkurin co-expressed vs TRPC2 alone

Row | Molecule | reduction of co-immunoprecipitation of TRPC2 with enkurin-HA [1] [%] | time to peak amplitude (TRPC2 channel; TRPC2 and enkurin co-expressed) [s] | current activates faster (TRPC2 channel; [3]) | increase of peak amplitude of ATP-evoked TRPC2 current (TRPC2 channel; [3]) | increase of total TRPC2 current, estimated by integrating areas beneath traces (TRPC2 channel; [3]) | ATP-evoked current (TRPC2 channel; TRPC2 and enkurin co-expressed, n=5) | stimulation of ATP-evoked current relative to TRPC2 alone (TRPC2 channel; enkurin co-expressed with deletion mutant of TRPC2 lacking the PKD1 domain) | activation rate of the ATP-evoked current [2] [fold] | total TRPC2 current (integrated area beneath traces) [2] [fold]
1 | B1 | > 90 | – | – | – | – | – | – | – | –
2 | B2 | – | 0.5 to 1 | about 25 times | 5-6 fold | nine +/−two | 131+/−12 pA | no stimulation | ~25 | 9
